We go through four molecules from paper PMC10397247.

In one assay the target is T1, P9A.
T1 chain: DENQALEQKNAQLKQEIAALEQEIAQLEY
The experiment in a line: two-hybrid library CCNG1.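 Note: natural log of median RNA to DNA barcode read ratio; higher means stronger binding.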

The target of another assay is T2, 4H55-AA.
T2 chain: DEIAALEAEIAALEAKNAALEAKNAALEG
Nature of the assay: two-hybrid library CCmax.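 Note: natural log of median RNA to DNA barcode read ratio; higher means stronger binding.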 The conditions noted are these: mean of both orientations.

The target in another assay is T3, 4H481-AA.
T3 chain: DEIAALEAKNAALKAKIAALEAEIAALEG
Nature of the assay: two-hybrid library CCmax.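 Note: natural log of median RNA to DNA barcode read ratio; higher means stronger binding.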 The conditions noted are these: mean of both orientations.

The target of another assay is T4, 4H4033-AA.
T4 chain: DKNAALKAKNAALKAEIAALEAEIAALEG
The experiment in a line: two-hybrid library CCmax.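 Note: natural log of median RNA to DNA barcode read ratio; higher means stronger binding.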 The note with it: mean of both orientations.

A further assay has as its target T5, 4H2935-AA.
T5 chain: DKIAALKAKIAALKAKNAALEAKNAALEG
Nature of the assay: two-hybrid library CCmax.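 Note: natural log of median RNA to DNA barcode read ratio; higher means stronger binding.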 The conditions noted are these: mean of both orientations.

The next assay has as its target T6, 4H3664-AA.
T6 chain: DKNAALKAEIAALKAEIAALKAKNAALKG
Nature of the assay: two-hybrid library CCmax.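 Note: natural log of median RNA to DNA barcode read ratio; higher means stronger binding.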 The conditions noted are these: mean of both orientations.

For a further assay, the target named is T7, 4H369-AA.
T7 chain: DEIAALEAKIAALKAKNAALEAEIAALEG
Nature of the assay: two-hybrid library CCmax. The note with it: mean of both orientations.

The target of another assay is T8, 4H327-AA.
T8 chain: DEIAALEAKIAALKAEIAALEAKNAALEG
Nature of the assay: two-hybrid library CCmax.

The next assay concerns the target T9, 4H3625-AA.
T9 chain: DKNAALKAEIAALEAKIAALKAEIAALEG
Nature of the assay: two-hybrid library CCmax. The conditions noted are these: mean of both orientations.

The target of the next assay is T10, 4H2726-AA.
T10 chain: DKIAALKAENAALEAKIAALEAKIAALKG
Nature of the assay: two-hybrid library CCmax.

The target of a further assay is T11, 4H3605-AA.
T11 chain: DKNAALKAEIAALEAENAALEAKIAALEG
The experiment in a line: two-hybrid library CCmax. The conditions noted are these: mean of both orientations.

Another assay has as its target T12, 4H3922-AA.
T12 chain: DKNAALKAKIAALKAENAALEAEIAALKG
Nature of the assay: two-hybrid library CCmax. The conditions noted are these: mean of both orientations.

Another assay concerns the target T13, 4H662-AA.
T13 chain: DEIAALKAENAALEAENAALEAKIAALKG
Nature of the assay: two-hybrid library CCmax. The conditions noted are these: mean of both orientations.

For a further assay, the target named is T14, 4H3056-AA.
T14 chain: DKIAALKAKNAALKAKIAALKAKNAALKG
Nature of the assay: two-hybrid library CCmax. The conditions noted are these: mean of both orientations.

The next assay deals with T15, 4H3133-AA.
T15 chain: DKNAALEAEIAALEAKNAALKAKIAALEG
The experiment in a line: two-hybrid library CCmax. The note with it: mean of both orientations.

Another assay addresses T16, 4H340-AA.
T16 chain: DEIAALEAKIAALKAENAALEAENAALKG
The experiment in a line: two-hybrid library CCmax. The conditions noted are these: mean of both orientations.

A further assay addresses T17, 4H2648-AA.
T17 chain: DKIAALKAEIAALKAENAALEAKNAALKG
Nature of the assay: two-hybrid library CCmax. The conditions noted are these: mean of both orientations.

A further assay has as its target T18, 4H384-AA.
T18 chain: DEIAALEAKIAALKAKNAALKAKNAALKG
Nature of the assay: two-hybrid library CCmax. The conditions noted are these: mean of both orientations.

The next assay has as its target T19, 4H3162-AA.
T19 chain: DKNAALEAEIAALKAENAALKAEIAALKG
Nature of the assay: two-hybrid library CCmax. The note with it: mean of both orientations.

Another assay addresses T20, 4H32-AA.
T20 chain: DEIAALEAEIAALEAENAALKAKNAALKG
Nature of the assay: two-hybrid library CCmax. The note with it: mean of both orientations.

Another assay addresses T21, 4H3631-AA.
T21 chain: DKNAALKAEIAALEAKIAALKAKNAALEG
The experiment in a line: two-hybrid library CCmax. The conditions noted are these: mean of both orientations.

In the next assay the target is T22, 4H3718-AA.
T22 chain: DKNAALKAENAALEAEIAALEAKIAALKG
Nature of the assay: two-hybrid library CCmax. The conditions noted are these: mean of both orientations.

A further assay concerns the target T23, 4H3413-AA.
T23 chain: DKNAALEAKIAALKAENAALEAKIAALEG
The experiment in a line: two-hybrid library CCmax. The conditions noted are these: mean of both orientations.

The next assay deals with T24, 4H2553-AA.
T24 chain: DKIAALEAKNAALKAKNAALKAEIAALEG
The experiment in a line: two-hybrid library CCmax. The conditions noted are these: mean of both orientations.

The target of the next assay is T25, 4H2907-AA.
T25 chain: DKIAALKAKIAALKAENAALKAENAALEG
Nature of the assay: two-hybrid library CCmax. The note with it: mean of both orientations.

Another assay addresses T26, 4H3378-AA.
T26 chain: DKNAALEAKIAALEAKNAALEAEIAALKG
Nature of the assay: two-hybrid library CCmax.

The next assay deals with T27, 4H3606-AA.
T27 chain: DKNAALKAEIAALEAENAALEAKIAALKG
Nature of the assay: two-hybrid library CCmax. The conditions noted are these: mean of both orientations.

The next assay concerns the target T28, 4H697-AA.
T28 chain: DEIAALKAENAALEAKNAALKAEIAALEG
The experiment in a line: two-hybrid library CCmax. The conditions noted are these: mean of both orientations.

The target of a further assay is T29, 4H3865-AA.
T29 chain: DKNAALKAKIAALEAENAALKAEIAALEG
Nature of the assay: two-hybrid library CCmax. The note with it: mean of both orientations.

In the next assay the target is T30, 4H3697-AA.
T30 chain: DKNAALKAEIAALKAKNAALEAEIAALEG
Nature of the assay: two-hybrid library CCmax. The note with it: mean of both orientations.

The next assay addresses T31, 4H2611-AA.
T31 chain: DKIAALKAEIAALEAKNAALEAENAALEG
The experiment in a line: two-hybrid library CCmax. The conditions noted are these: mean of both orientations.

In a further assay the target is T32, 4H2198-AA.
T32 chain: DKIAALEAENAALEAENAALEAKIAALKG
Nature of the assay: two-hybrid library CCmax.

In the next assay the target is T33, 4H3588-AA.
T33 chain: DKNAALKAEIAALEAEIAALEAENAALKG
The experiment in a line: two-hybrid library CCmax. The conditions noted are these: mean of both orientations.

For the next assay, the target named is T34, 4H2620-AA.
T34 chain: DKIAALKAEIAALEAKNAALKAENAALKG
Nature of the assay: two-hybrid library CCmax. The note with it: mean of both orientations.

Another assay concerns the target T35, 4H982-AA.
T35 chain: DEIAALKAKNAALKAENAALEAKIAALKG
The experiment in a line: two-hybrid library CCmax. The conditions noted are these: mean of both orientations.

A further assay addresses T36, 4H348-bN.
T36 chain: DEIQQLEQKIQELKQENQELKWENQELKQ
Nature of the assay: two-hybrid library CCNG1.

Another assay has as its target T37, 4H2839-bN.
T37 chain: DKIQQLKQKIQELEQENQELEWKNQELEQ
The experiment in a line: two-hybrid library CCNG1.

A further assay has as its target T38, 4H492-bN.
T38 chain: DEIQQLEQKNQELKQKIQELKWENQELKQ
Nature of the assay: two-hybrid library CCNG1.

For a further assay, the target named is T39, 4H3277-bN.
T39 chain: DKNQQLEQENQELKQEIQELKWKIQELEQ
Nature of the assay: two-hybrid library CCNG1.

A further assay addresses T40, 4H3057-bN.
T40 chain: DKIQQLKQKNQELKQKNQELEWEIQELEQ
Nature of the assay: two-hybrid library CCNG1.

In a further assay the target is T41, 4H2915-bN.
T41 chain: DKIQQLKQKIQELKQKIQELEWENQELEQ
The experiment in a line: two-hybrid library CCNG1.

The target in another assay is T42, 4H40-bN.
T42 chain: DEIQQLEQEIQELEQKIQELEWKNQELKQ
Nature of the assay: two-hybrid library CCNG1.

Another assay addresses T43, 4H741-bN.
T43 chain: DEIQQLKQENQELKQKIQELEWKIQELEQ
Nature of the assay: two-hybrid library CCNG1.

The target in the next assay is T44, 4H319-bN.
T44 chain: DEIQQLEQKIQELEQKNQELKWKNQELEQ
Nature of the assay: two-hybrid library CCNG1.

Another assay concerns the target T45, 4H477-bN.
T45 chain: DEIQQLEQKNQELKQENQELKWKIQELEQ
Nature of the assay: two-hybrid library CCNG1.

In the assay with P9A, DENQALEQKNAQLKQEIAALEQEIAQLEY [P9A] displayed an interaction score of -1.28.

Regarding DKIAALKAENAALEAKIAALEAKIAALKG [4H2726-AA], the interaction score with 4H55-AA is -1.14; in the assay with 4H481-AA, 1.94; with 4H4033-AA, 2.08; in the assay with 4H2935-AA it was -1.45; with 4H3664-AA, -1.05; with 4H369-AA, 1.68. Also, the interaction score with 4H327-AA was 0.992; in the assay with 4H3625-AA, -0.165; in the assay with 4H2726-AA, 1.36; with 4H3605-AA it was -0.283; with 4H3922-AA, -1.41; with 4H662-AA it was -0.732.

DKIAALEAENAALEAENAALEAKIAALKG [4H2198-AA]: the interaction score with 4H3056-AA was -0.0509; in the assay with 4H3133-AA it was -0.581; with 4H340-AA, -1.2; with 4H2648-AA, -1.34; with 4H384-AA, 1.32; in the assay with 4H3162-AA it was -1.38. The interaction score in the assay with 4H32-AA is -0.333; with 4H3631-AA it was -1.38; with 4H3718-AA, -0.339; in the assay with 4H3413-AA it was -0.996; in the assay with 4H2553-AA, 1.96; with 4H2907-AA it was -0.303. Besides, the interaction score was -1.47 with 4H3378-AA; -1.01 with 4H3606-AA; 1 in the assay with 4H697-AA; -0.834 with 4H3865-AA; -1.16 with 4H3697-AA; -1.63 with 4H2611-AA. Besides, the interaction score with 4H2198-AA was 0.363; with 4H3588-AA, -1.24; in the assay with 4H2620-AA it was -0.832; with 4H982-AA, 1.67.

In the case of DKIQQLKQKIQELEQENQELEWKNQELEQ [4H2839-bN], the interaction score with 4H348-bN is -0.511; in the assay with 4H2839-bN, -0.536; with 4H492-bN, -0.542; with 4H3277-bN it was -0.558; in the assay with 4H3057-bN, -0.124; with 4H2915-bN, 0.377. Moreover, the interaction score with 4H40-bN was -0.765; in the assay with 4H741-bN it was -1.58; in the assay with 4H319-bN, 1.51; in the assay with 4H477-bN, -1.55.
